This note sets out measurements from paper PMC3135403 (The Journal of Cell Biology, 2011).

In data set [1] the target is T1, GST-Bak 93E (human, UniProt Q16611 1-186, Bak 93E).
T1 sequence (looked up): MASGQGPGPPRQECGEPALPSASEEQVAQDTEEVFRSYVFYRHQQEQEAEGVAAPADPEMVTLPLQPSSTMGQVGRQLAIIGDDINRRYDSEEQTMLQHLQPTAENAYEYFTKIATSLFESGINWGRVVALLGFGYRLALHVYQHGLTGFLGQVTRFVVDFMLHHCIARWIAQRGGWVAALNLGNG
In words: SPR.

The target of data set [2] is T2, GST-BakΔTM R36A (human, UniProt Q16611 1-186, R36A).
T2 sequence (looked up): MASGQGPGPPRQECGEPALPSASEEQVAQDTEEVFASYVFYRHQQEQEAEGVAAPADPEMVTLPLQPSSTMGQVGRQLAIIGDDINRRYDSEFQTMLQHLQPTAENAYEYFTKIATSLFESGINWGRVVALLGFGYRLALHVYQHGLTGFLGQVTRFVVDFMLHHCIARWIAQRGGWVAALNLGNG
Put plainly: SPR.

In data set [3] the target is T3, GST-Bak 114E (human, UniProt Q16611 1-186, Bak 114E).
T3 sequence (looked up): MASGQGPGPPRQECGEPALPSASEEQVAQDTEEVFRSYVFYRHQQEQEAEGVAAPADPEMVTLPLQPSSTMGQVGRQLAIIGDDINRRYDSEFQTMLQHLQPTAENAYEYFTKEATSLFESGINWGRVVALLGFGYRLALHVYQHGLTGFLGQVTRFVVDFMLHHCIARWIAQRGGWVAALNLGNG
In words: SPR.

Data set [4] addresses T4, GST-Bak 93E/114E (human, UniProt Q16611 1-186, Bak 93E/114E (93E) | Bak 93E/114E (114E)).
T4 sequence (looked up): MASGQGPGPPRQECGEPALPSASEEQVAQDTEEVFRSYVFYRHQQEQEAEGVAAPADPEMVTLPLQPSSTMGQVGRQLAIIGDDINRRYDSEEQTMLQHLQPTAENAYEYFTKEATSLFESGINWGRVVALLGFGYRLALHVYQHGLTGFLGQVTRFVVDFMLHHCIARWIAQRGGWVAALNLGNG
In words: SPR.

In data set [5] the target is T5, GST-BakΔTM (human, UniProt Q16611 1-186).
T5 sequence (looked up): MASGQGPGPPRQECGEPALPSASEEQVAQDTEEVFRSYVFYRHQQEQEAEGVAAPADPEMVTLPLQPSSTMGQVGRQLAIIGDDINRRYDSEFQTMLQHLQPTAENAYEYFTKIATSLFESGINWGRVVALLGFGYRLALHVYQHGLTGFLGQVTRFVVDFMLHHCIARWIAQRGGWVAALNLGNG
Put plainly: SPR.

The target in data set [6] is T5, GST-BakΔTM. Put plainly: SPR. The source holds these as a separate data set.
Data set [7] deals with the molecule itself. Put plainly: SEC.

B1: Noxa (full-length, S peptide and His6 tagged) (natural protein, human, UniProt Q13794-1 1-54, looked up)
chain: MPGKKARKNAQPSPARAPAELEVECATQLRRFGDKLNFRQKLLNLISKLFCSGT
Regarding B1, the binding result in data set [1], in data set [2], in data set [3] and in data set [4] was “binds” each time. This molecule also had a Kd in data set [5] of 24 nM.

B2: tBid (domain or fragment, human, UniProt P55957 61-195, looked up)
chain: GNRSSHSRLGRIEADSESQEDIIRNIARHLAQVGDSMDRSIPPGLVNGLALQLRNTSRSEEDRNRDLATALEQLLQAYPRDMEKEKTMLVLALLLAKKVASHTPSLLRDVFHTTVNFINQNLRTYVRSLARNGMD
For B2, the binding result in data set [6] is recorded as “binds”.

B3: His6-Bak R36A (domain or fragment, human, UniProt Q16611 1-186, looked up)
chain: MASGQGPGPPRQECGEPALPSASEEQVAQDTEEVFASYVFYRHQQEQEAEGVAAPADPEMVTLPLQPSSTMGQVGRQLAIIGDDINRRYDSEFQTMLQHLQPTAENAYEYFTKIATSLFESGINWGRVVALLGFGYRLALHVYQHGLTGFLGQVTRFVVDFMLHHCIARWIAQRGGWVAALNLGNG
For B3, in data set [7], the binding result is given as “binds”.

With MPGKKARKNAQPSPARAPAELEVECATQLRRFGDKLNFRQ (domain or fragment, human, UniProt Q13794-1 1-40, looked up) [NoxaΔCT], the binding result in data set [6] is on record as “binds”.
